Tests used:
[1] = tested on: brainstem spinal-cord preparations from EP3R^+/+ pups; assay: En bloc brainstem-spinal cord preparation, respiratory activity, EP3R+/+; set-up: species or system mice; details: PGE2 20 μg/l, 2-3 d old EP3R+/+ pups, n=5, reversible
Description: (§1) Brainstem-spinal cord preparations were rapidly isolated from 2 d-old C57BL/6 mice with EP3R^+/+ and EP3R^−/− genotypes as described previously (n=11) (50, 51, both of which are expressly incorporated herein by reference). Respiratory-related activity corresponding to the inspiratory rhythm was monitored at the C4 ventral root through a glass suction electrode, recorded (5 kHz), and analyzed offline. Control recordings were performed for at least 20 min before perfusion with aCSF containing PGE2 followed by an aCSF washout period.
(§2) The brainstem was rostrally decerebrated between the cranial nerve VI roots and the lower border of the trapezoid body so that the pons was removed. The preparation was continuously perfused in a 1.5 ml chamber with artificial cerebrospinal fluid (aCSF): 130 mM NaCl, 3.3 mM KCl, 0.8 mM KH2PO4, 0.8 mM CaCl2, 1.0 mM MgCl2, 26 mM NaHCO3, and 30 mM D-glucose at 28° C. (flow rate, 3-4 ml/min). The solution was continuously equilibrated with 95% O2 and 5% CO2 to pH 7.4 (50, 51).

[2] = tested on: EP3R^+/+ mice; assay: Flow plethysmography after icv PGE2, EP3R+/+ mice; type: in vivo
Description: (§3) A Plexiglas chamber (35 ml) was connected to a highly sensitive direct airflow sensor (0-200 ml/min; TRN3100, Kent Scientific Corporation, Litchfield, Conn., USA). The flow signal was amplified by a four-channel amplifier (P/N 770 S/N 5; SENSElab, Somedic Sales, Hörby, Sweden), converted to digital signal, and recorded at 100 Hz by an online computer using DasyLab software (Datalog GmbH & Co. KG, Mönchengladbach, Germany). Respiratory frequency (fR, breaths/min), tidal volume (VT, μl/breath), and minute ventilation (VE, μl/min) were calculated. Chamber temperature was maintained at 30.1±0.1° C. in accordance with the documented thermoneutral range for neonatal mice by immersing the chamber in a thermostat-controlled water bath (49). As described previously, the chamber was calibrated by repeatedly injecting standardized volumes of air (5-200 μl) with preset precision syringes (Hamilton Bonaduz AG, Switzerland) (6). 95% of gas exchange occurred within 35 s of administration, which was verified by CO2 content analyses (Metek CD-3A and S-3A, PA, USA).
(§4) Respiration was examined using flow plethysmography in 9 d-old C57BL/6 mice (n=38) with variable expression of EP3R. After the administration of sevoflurane anesthesia for approximately 60 s, PGE2 (4 nmol in 2-4 μl aCSF) or vehicle was slowly injected into the lateral ventricle using a thin pulled glass pipette attached to polyeethylene tubing. The mouse was then placed immediately into the plethysmograph chamber. After a 10 min recovery period in normoxia, the mouse was exposed to hyperoxic and anoxic challenge as described above. Animal skin temperature was recorded at baseline and at each subsequent minute using a thermistor temperature probe.
(§5) Periods of calm respiration without movement artefact were selected for analysis. Mean fR, VT, and VE values during normoxia and hyperoxia as well as the anoxic response (i.e., hyperpnea, primary apnea, gasping, secondary apnea, and autoresuscitation) were analyzed as described previously (6, the disclosure of which is expressly incorporated herein by reference). Survival was recorded for all animals. Apnea was defined as cessation of breathing for three respiratory cycles. Regularity of breathing was quantified using the coefficient of variation (C.V.) (i.e., SD divided by mean of breath-by-breath interval during 60 periods).

[3] = tested on: EP3R^−/− mice; assay: Flow plethysmography after icv PGE2, EP3R−/− mice; type: in vivo
Description: as §3, §4, §5

[4] = Description: PGE2 and metabolites thereof may persist and may be measured even after more than 72 hours. Half time for PGE2 degradation various considerably pending on the cellular environment. Half-life of PGE2 can vary from a few minutes to several hours. When evaluating PGE2 produced in the body and secreted in urine or other body fluids it is important to also measure its metabolites.
[5] = tested on: brainstem spinal-cord preparations from EP3R^−/− mice; assay: En bloc brainstem-spinal cord preparation, respiratory activity, EP3R−/−; details: PGE2 20 μg/l, n=6
Description: as §1, §2

[6] = tested on: IL-1β-induced respiratory depression; details: cited from earlier work
[7] = biological target: T1, mPGES-1 enzyme (Homo sapiens, UniProt O14684); details: reported in refs 75-77; read-out: IC50, inhibition of mPGES-1; cited from earlier work
T1 sequence (O14684 1-152): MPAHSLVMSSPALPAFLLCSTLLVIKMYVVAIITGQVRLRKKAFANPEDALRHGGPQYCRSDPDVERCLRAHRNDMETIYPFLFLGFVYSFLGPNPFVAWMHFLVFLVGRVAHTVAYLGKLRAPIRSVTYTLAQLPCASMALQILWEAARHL

[8] = tested on: mPGES-1; assay: mPGES-1 activity in brain membrane fraction after IL-1β; type: in vivo, mice
Description: Newborn mouse brains (n=33) were homogenized in 0.1M KPi (potassium inorganic phosphate) buffer containing 0.25M sucrose, 1× complete protease inhibitor (Roche Diagnostics) and 1 mM reduced glutathione followed by sonication. Membrane fraction was isolated by subcellular fractionation. mPGES-1 activity was measured in the membrane fraction as described previously (52, the disclosure of which is expressly incorporated herein by reference).

[9] = tested on: EP3R^−/− mice; assay: Whole-body flow plethysmography after i.p. IL-1β, EP3R−/− mice; type: in vivo
Description: as §3, with “Chamber temperature was maintained at 30.1±0.1° C. in accordance with the documented thermoneutral range for neonatal mice by immersing the chamber in a thermostat-controlled water bath (49).” left out, “(6).” for “(6). 95% of gas exchange occurred within 35 s of administration, which was verified by CO2 content analyses (Metek CD-3A and S-3A, PA, USA).”
(§6) Each mouse received an intraperitoneal injection (0.01 ml/g) of IL-1β (10 μg/kg) or vehicle. At 70 min, the mouse was placed unrestrained into the plethysmograph chamber. Respiration was assessed during 4 min of normoxia (21% O2) followed by 1 min of hyperoxia (100% O2). After a 5 min recovery period in normoxia, the respiratory response to anoxia (100% N2) was examined. Finally, 100% O2 was administered for 8 min, and the ability to autoresuscitate was evaluated. Skin temperature was recorded at baseline, at 70 min, and after removal from the chamber. Rectal temperature was not measured as rectal probe placement may alter respiratory behavior. The anogenital distance was measured to approximate gender.
as §5, with “periods). […]” for “periods).”

[10] = tested on: mPGES-1^−/− mice; assay: Whole-body flow plethysmography after i.p. IL-1β, mPGES-1−/− mice; type: in vivo
Description: as §3, with “Chamber temperature was maintained at 30.1±0.1° C. in accordance with the documented thermoneutral range for neonatal mice by immersing the chamber in a thermostat-controlled water bath (49).” left out, “(6).” for “(6). 95% of gas exchange occurred within 35 s of administration, which was verified by CO2 content analyses (Metek CD-3A and S-3A, PA, USA).”
as §6, §5
(§7) As there is a variable response to anoxia based upon age (53), we attempted to perform all recordings at age P9; however, in an effort to minimize confounding age-related effects, weight was used as a correlate of age and only animals with weights within 1 SD of the population mean weight were included in the anoxia and survival analyses (6).

[11] = tested on: mPGES-1^+/+ mice; assay: Whole-body flow plethysmography after i.p. IL-1β, mPGES-1+/+ mice; type: in vivo
Description: as §3, with “Chamber temperature was maintained at 30.1±0.1° C. in accordance with the documented thermoneutral range for neonatal mice by immersing the chamber in a thermostat-controlled water bath (49).” left out, “(6).” for “(6). 95% of gas exchange occurred within 35 s of administration, which was verified by CO2 content analyses (Metek CD-3A and S-3A, PA, USA).”
as §6, §5, §7

[12] = 9 d-old EP3R+/+ mice, PGE2 icv, hyperoxia (100% O2)
[13] = 9 d-old EP3R+/+ mice, PGE2 icv, normoxia
[14] = 9 d-old EP3R−/− mice, PGE2 icv, hyperoxia (100% O2)
[15] = 9 d-old EP3R−/− mice, PGE2 icv, normoxia
[16] = EP3R wildtype mice, 90 min after IL-1β
[17] = 9 d-old mPGES-1−/− mice, IL-1β i.p., hyperoxia (100% O2)
[18] = 9 d-old mPGES-1−/− mice, IL-1β i.p., normoxia
[19] = mPGES-1−/− mice, anoxia at 80 min after IL-1β
[20] = 9 d-old mPGES-1+/+ mice, IL-1β i.p., hyperoxia (100% O2)
[21] = 9 d-old mPGES-1+/+ mice, IL-1β i.p., normoxia
[22] = mPGES-1+/+ mice, anoxia at 80 min after IL-1β

## CCCCC[C@H](O)/C=C/[C@H]1[C@H](O)CC(=O)[C@@H]1C/C=C\CCCC(=O)O [PGE2, Prostaglandin E2]
[1]
  respiratory rhythm generation, relative to control frequency (fR): 64±5 % of control frequency
[2]; 9 d-old EP3R+/+ mice, PGE2 4 nmol icv, normoxia
  fR, normoxia: 247 ± 13 breaths/min
[2]; 9 d-old EP3R+/+ mice, PGE2 icv, anoxia (100% N2)
  Hyperpnea fR: 267 ± 11 breaths/min
[2]; [12]
  VE, hyperoxia: 745 ± 102 µL/min/g
  VT, hyperoxia: 4.4 ± 1.1 μl/br/g
  fR, hyperoxia: 190 ± 16 breaths/min
[2]; [13]
  VE, normoxia: 901 ± 154 µL/min/g
  VT, normoxia: 3.7 ± 0.4 μl/br/g
[2]; EP3R+/+ mice, PGE2 icv, compared to vehicle
  gasping response and anoxic survival: did not alter the gasping response or anoxic survival
[2]; EP3R+/+ mice, PGE2 icv, normoxia and hyperoxia, vs vehicle
  apnea frequency and breathing pattern: induced a significantly greater apnea frequency and irregular breathing pattern
[3]; 9 d-old EP3R−/− mice, PGE2 4 nmol icv, normoxia
  fR, normoxia: 256 ± 10 breaths/min
[3]; 9 d-old EP3R−/− mice, PGE2 icv, anoxia (100% N2)
  Hyperpnea fR: 290 ± 9 breaths/min
[3]; [14]
  VE, hyperoxia: 1509 ± 299 µL/min/g
  VT, hyperoxia: 6.7 ± 1.3 μl/br/g
  fR, hyperoxia: 229 ± 9 breaths/min
[3]; [15]
  VE, normoxia: 1350 ± 129 µL/min/g
  VT, normoxia: 5.2 ± 0.5 μl/br/g
[3]; EP3R−/− mice, PGE2 icv, compared to vehicle
  gasping response and anoxic survival: did not alter the gasping response or anoxic survival
[3]; EP3R−/− mice, PGE2 icv, normoxia and hyperoxia, vs vehicle
  induction of apneas: not observed
[4]
  half-life of PGE2: 12 to 18 h
[5]
  effect on respiratory activity: did not affect respiratory activity

## COc1ccc2c(c1)c(CC(=O)O)c(C)n2C(=O)c1ccc(Cl)cc1 [indomethacin]
[6]
  effect on respiratory depression induced by IL-1β: attenuates the respiratory depression
[6]; neonatal rats
  effect on adverse effects of IL-1β on hypoxic gasping and anoxic survival: attenuates the adverse effects

## CCCCC/C=C\C\C=C/C=C/C=C/[C@@H](SC[C@H](NC(=O)CC[C@H](N)C(=O)O)C(=O)NCC(=O)O)[C@@H](O)CCCC(=O)O [leukotriene C4]
[7]
  IC50: 5 µM

## CSc1ccc(/C=C2/C(C)=C(CC(=O)O)c3cc(F)ccc32)cc1 [sulindac sulfide]
[7]
  IC50: 80 µM

B1: IL-1β: Recombinant mouse interleukin-1β (Nordic Biosite AB), pro-inflammatory cytokine given i.p. to neonatal mice (protein, UniProt P10749 118-269, looked up)
Interleukin-1 beta: VPIRQLHYRLRDEQQKSLVLSDPYELKALHLNGQNINQQVIFSMSFVQGEPSNDKIPVALGLKGKNLYLSCVMKDGTPTLQLESVDPKQYPKKKMEKRFVFNKIEVKSKVEFESAEFPNWYISTSQAEHKPVFLGNNSGQDIIDFTMESVSS
[8]; [16]
  mPGES-1 activity (PGE2), brainstem: 1111±49 pmol/min/mg protein
  mPGES-1 activity (PGE2), cortex: 710±44 pmol/min/mg protein
[8]; IL-1β-treated mice exposed to anoxia (100% N2, 5 min)
  brainstem mPGES-1 activity compared to control mice: four-times higher activity
[8]; between 90 and 180 min after IL-1β
  cortex mPGES-1 activity: remained unchanged
[8]; mice with genetic deletion of mPGES-1 gene, IL-1β and anoxia
  mPGES-1 activity: negligible activity
[8]; wildtype mice, 90 min after IL-1β
  brainstem mPGES-1 activity compared to saline-treated mice: approximately two-fold higher activity
[8]; wildtype mice, 180 min after IL-1β
  increase in brainstem mPGES-1 activity: four-fold increase
[9]; EP3R−/− mice, IL-1β i.p.
  hypoxic ventilatory response: unable to affect the hypoxic ventilatory response
  ventilation during normoxia or hyperoxia: did not alter ventilation
[9]; mice lacking EP3R, 5 min anoxia at 80 min after IL-1β i.p.
  anoxic survival: did not decrease survival
[10]; [17]
  VE, hyperoxia: 795 ± 67 µL/min/g
  VT, hyperoxia: 3.9 ± 0.3 μl/br/g
  fR, hyperoxia: 206 ± 11 breaths/min
[10]; [18]
  VE, normoxia: 660 ± 41 µL/min/g
  VT, normoxia: 2.7 ± 0.1 μl/br/g
  fR, normoxia: 245 ± 7 breaths/min
[10]; mPGES-1−/− mice, anoxia (100% N2) at 80 min after IL-1β
  Hyperpnea fR: 338 ± 24 breaths/min
[10]; [19]
  Gasping Response Duration: 146 ± 23
  Gasping Response Gasp #: 36 ± 3
  Gasping Response Gasp fR: 18 ± 2
  Hyperpnea Duration: 57 ± 2
[10]; mice lacking mPGES-1, 5 min anoxia at 80 min after IL-1β i.p.
  anoxic survival: did not decrease survival
[11]; 9 d-old mPGES-1+/+ mice, IL-1β 10 μg/kg i.p., normoxia, mean±SEM
  fR, normoxia: 224 ± 5 breaths/min
[11]; [20]
  VE, hyperoxia: 628 ± 43 µL/min/g
  VT, hyperoxia: 3.9 ± 0.2 μl/br/g
  fR, hyperoxia: 155 ± 7 breaths/min
[11]; [21]
  VE, normoxia: 730 ± 38 µL/min/g
  VT, normoxia: 3.2 ± 0.2 μl/br/g
[11]; mPGES-1+/+ mice, 5 min anoxia at 80 min after IL-1β i.p.
  anoxic survival: significantly reduced anoxic survival
[11]; mPGES-1+/+ mice, anoxia (100% N2) at 80 min after IL-1β
  Hyperpnea fR: 390 ± 11 breaths/min
[11]; [22]
  Gasping Response Duration: 82 ± 7
  Gasping Response Gasp #: 30 ± 2
  Gasping Response Gasp fR: 23 ± 1
  Hyperpnea Duration: 61 ± 2

From patent US20110008258A1, “METHODS RELATING TO BREATHING DISORDERS” (SAMSARA MEDICIN AB, priority 2007, published 2011)
